Reference: patent US20120027773A1 (AVEO PHARMACEUTICALS, published 2012)

What was measured:
[1] = target: T1, human wild-type RON (cell surface) (human, UniProt Q04912 25-1400); test: cell-based or functional assay
[2] = target: T2, delta 160 RON variant (cell surface) (human, UniProt Q04912 25-1400); test: FACS, 10 ug/ml antibody, HT-29 cells, 4 C
T2 construct: whole, on cells; Splice variant; also called delta 160 variant
Experimental: (§1) Binding to cell surface wild-type RON and delta 160 RON at 4° C. was determined for antibodies 07F01, 12B11, 17F06, 18H09, and 29B06, using FACS. Cells expressing wild-type RON (PC3), and cells expressing delta 160 RON (HT-29), were harvested using cell dissociation buffer (Invitrogen), washed twice with FACS buffer (0.5% BSA PBS) and treated with CytoQ Antibody diluent and FC receptor block (Innovex). Purified antibodies were diluted at a concentration of 10 μg/ml, in FACS buffer. Cells were incubated with 100 μl of antibody mix for one hour, washed with FACS buffer three times, and incubated for 45 minutes with goat anti-mouse PE conjugated antibody (Jackson Immunoresearch Laboratories). Cells were washed three times with FACS buffer, resuspended in 300 μl of FACS buffer and analyzed using a Beckman Coulter Cytomics FC 500 FACS instrument.

[3] = target: T1, human wild-type RON (cell surface); test: cell-based or functional assay; remark: listed apart in the source
[4] = target: T3, recombinant human RON-ECD/mFc fusion protein (human, UniProt Q04912 25-957); test: SPR, Ab captured on anti-mouse IgG, 25 C, AVG
T3 construct: extracellular domain; also called rhRON ECD/mFc; rhRon ECD/mFc; not shown: THXmFC: Thrombin/His tag/Factor Xa-AJ mouse IgG-Fc
Experimental: (§2) The binding affinities and kinetics of binding of antibodies 07F01, 29B06, 17F06, 18H09, and 12B11 to recombinant human RON-ECD/mFc fusion protein (rhRON ECD/mFc) and recombinant human RON SEMA and PSI domains (rhRON SEMA+PSI) (R&D Systems, Inc., Minneapolis, Minn.) were measured by surface plasmon resonance, using a Biacore T100 instrument (GE Healthcare, Piscataway, N.J.).
(§3) Rabbit anti-mouse IgGs (GE Healthcare) were immobilized on carboxymethylated dextran CM4 sensor chips (GE Healthcare) by amine coupling, according to a standard protocol. Analyses were performed at 25° C. and 37° C., using PBS containing 0.05% surfactant P20 as running buffer. The antibodies were captured in individual flow cells at a flow rate of 10 μl/min. Injection time was varied for each antibody to yield an Rmax between 30 and 60 RU. 250 μg/mL mouse Fc were injected at 30 μl/min for 120 seconds to block non-specific binding of antibodies to Fc portion of the protein when needed. Buffer, rhRon ECD/mFc or rhRON SEMA+PSI diluted in running buffer was injected sequentially over a reference surface (no antibody captured) and the active surface (antibody to be tested) for 300 seconds at 60 μl/minute. The dissociation phase was monitored for up to 3600 seconds. The surface was then regenerated with two 60-second injections of 10 mM Glycine-HCl, pH 1.7, at a flow rate of 60 μl/min. The rhRON ECD/mFc or rhRON SEMA+PSI concentration range tested was 0.625 nM to 20 nM.
(§4) Kinetic parameters were determined using the kinetic function of the BIAevaluation software (GE Healthcare) with double reference subtraction. Kinetic parameters for each antibody, kₐ (association rate constant), kd (dissociation rate constant) and KD (equilibrium dissociation constant) were determined.

[5] = target: T3, recombinant human RON-ECD/mFc fusion …; test: SPR, Ab captured on anti-mouse IgG, 37 C, AVG
Experimental: as §2, §3, §4

[6] = target: T3, recombinant human RON-ECD/mFc fusion …; test: SPR, Ab captured on anti-mouse IgG, 25 C, AVG; * Outside instrument limit of detection
Experimental: as §2
(§5) Rabbit anti-mouse IgGs (GE Healthcare) were immobilized on carboxymethylated dextran CM4 sensor chips (GE Healthcare) by amine coupling, according to a standard protocol. Analyses were performed at 25° C. and 37° C., using PBS containing 0.05% surfactant P20 as running buffer. The antibodies were captured in individual flow cells at a flow rate of 10 μl/min. Injection time was varied for each antibody to yield an Rmax between 30 and 60 RU. 250 μg/mL mouse Fc were injected at 30 μl/min for 120 seconds to block non-specific binding of antibodies to Fc portion of the protein when needed. […] The dissociation phase was monitored for up to 3600 seconds. […]
as §4

[7] = target: T4, recombinant human RON SEMA and PSI domains (human, UniProt Q04912 25-571); test: SPR, Ab captured on anti-mouse IgG, 37 C, AVG
T4 construct: domain: SEMA+PSI; Commercial protein (R&D Systems); also called rhRON SEMA+PSI; hRON SEMA+PSI
Experimental: as §2, §3

[8] = target: T4, recombinant human RON SEMA and PSI …; test: ECL competition, MSP binding to coated hRON SEMA+PSI; competitor MSP; average
Experimental: (§6) The biochemical neutralization assay measures inhibition of MSP binding to hRON by antibodies in hybridoma supernatants, using electrochemiluminescence (ECL). MA2400 96-well high binding plates (Meso Scale Discovery) were coated with 25 μl of 0.42 μg/mL hRON SEMA+PSI (an N-terminal portion of the ECD of hRON; R&D Systems) in PBS for one hour at room temperature with agitation. The plates were washed four times with PBS+0.1% Tween-20 (PBST), and blocked with 150 μl of charcoal-stripped fetal bovine serum (FBS) (Gibco). The hybridoma supernatant were added and incubated for 45 minutes at room temperature. After incubation, 5 μl of MSP (3 μg/mL) in charcoal stripped FBS was added to each well, and incubated for 45 minutes. The plate was washed four times with PBST, and 25 μl of 1 μg/mL biotinylated anti-MSP antibody (R&D Systems) was added to the plates for one hour at room temperature with agitation. The plates were washed four times with PBST, and incubated with 25 μl of 1 μg/mL ST-streptavidin (Meso Scale Discovery) for one hour at room temperature with agitation. The plates were washed four times with PBST, and 150 μl read buffer (Meso Scale Discovery) was added to each well before the plates were analyzed on a Sector Imager 2400 (Meso Scale Discovery) instrument. Antibodies 07F01, 18H09 and 29B06 each blocked MSP binding to hRON SEMA+PSI in this neutralization assay.
(§7) Antibodies 07F01, 12B11, 17F06, 18H09, and 29B06 were tested for inhibition of MSP binding to hRON SEMA+PSI, as measured by electrochemiluminescence (ECL) assay as described in Example 3. The antibodies (concentration range: 0.006-10 μg/mL) were incubated for 45 minutes at room temperature.

[9] = target: T4, recombinant human RON SEMA and PSI …; test: SPR, Ab captured on anti-mouse IgG, 25 C, AVG
Experimental: as §2, §3

[10] = target: T1, human wild-type RON (cell surface); test: FACS, 10 ug/ml antibody, PC3 cells, 4 C
Experimental: as §1

[11] = target: T3, recombinant human RON-ECD/mFc fusion …; test: SPR, Ab captured on anti-mouse IgG, 25 C, AVG; * Outside instrument limit of detection; 25 C, AVG of n=3
Experimental: as §2, §5, §4

[12] = target: T4, recombinant human RON SEMA and PSI …; test: ECL competition, MSP binding to coated hRON SEMA+PSI; competitor MSP; average n=3
Experimental: as §6, §7

[13] = target: T4, recombinant human RON SEMA and PSI …; test: ECL competition assay: antibody titrated on plate-coated hRON SEMA+PSI; blocked ligand MSP, detected with biotinylated anti-MSP antibody
Experimental: as §6, §7

[14] = target: T3, recombinant human RON-ECD/mFc fusion …; test: SPR, Ab captured on anti-mouse IgG, 37 C, n=1
Experimental: as §2, §3, §4

[15] = target: T4, recombinant human RON SEMA and PSI …; test: SPR, Ab captured on anti-human IgG Fc, 37 C; 37 C, n=1
[16] = target: T4, recombinant human RON SEMA and PSI …; test: SPR, Ab captured on anti-human IgG Fc, 25 C
[17] = target: T4, recombinant human RON SEMA and PSI …; test: SPR, Ab captured on anti-human IgG Fc, 37 C

| Mean IC50 (nM), inhibition of MSP-dependent ERK phosphorylation, T47D cells [1] | HT-29 % cell surface binding [2] | Percent Inhibition of MSP-induced HPAF-II cell migration, antibody 2 ug/ml [3] | kon [4] | Kd [7] | koff [7] | kon [7] | Maximum Neutralization (%) [8] | Kd [9] | koff [9] | kon [9] | PC3 % cell surface binding [10] | Binder | other results |
| --- | --- | --- | --- | --- | --- | --- | --- | --- | --- | --- | --- | --- | --- |
| 0.96 nM | 99% | 70.7% | 170000 M⁻¹ s⁻¹ | 0.13 nM | 2.1e-05 s⁻¹ | 260000 M⁻¹ s⁻¹ | 7.9% | 0.009 nM | 1.4e-06 s⁻¹ | 190000 M⁻¹ s⁻¹ | 99.1% | 17F06 (antibody, mouse IgG2a, V domains shown, Murine hybridoma monoclonal, IgG2a/lambda (IGLC2); also called antibody 17F06) VH: EVKLVESGGGLVKPGASLKLSCAASGFIFSSYGMSWVRQTSDKRLEWVASISSGGGTTYYLDTVKGRFTISRENAKDTLYLQMSGLKSEDTALYYCTRGQWLLKFAYWGQGTLVTVSA VL: QLVLTQSSSASFSLGASAKLTCTLSSQHTTYTIEWYQQLPLKPPKYVMELKKDGSHSTGVGIPDRFSGSSSGADRYLTISNIQPEDEAIYICGVGETIEDQFVYVFGGGTKVTVLG | Kd [5]: 0.21 nM; koff [5]: 2.4e-05 s⁻¹; kon [5]: 140000 M⁻¹ s⁻¹; Kd [6]: < 0.0588 nM; koff [11]: < 1e-05 s⁻¹ |
| 0.71 nM | 98.3% | 107% | 330000 M⁻¹ s⁻¹ | 0.22 nM | 0.00012 s⁻¹ | 580000 M⁻¹ s⁻¹ | 86.9% | 0.0086 nM | 3.8e-06 s⁻¹ | 440000 M⁻¹ s⁻¹ | 99% | 18H09 (antibody, mouse IgG1, V domains shown, Murine hybridoma monoclonal, IgG1/lambda (IGLC1); also called antibody 18H09) VH: EVQLQESGPSLVKPSQTLSLTCYVTGDSITSDYWNWIRKFPGNKLEYMGYISYSGSTYYNPSLKSRISITRDTSKNQFYLRLNSVTTEDTATYYCARTHILTIAYWGQGTLVTVSA VL: QAVVTQESALTTSPGETVTLTCRSSAGAVTTSNFANWVQEKPDHLFTGLIGDTNIRAPGVPARFSGSLIGDKAALTITGAQTEDEAIYFCALWYSNHYWVFGGGTKLTVLG | Kd [4]: 0.22 nM; koff [4]: 5.7e-05 s⁻¹; IC50 [12]: 0.91 nM; IC50 (read off the curve) [13]: ~0.7 nM; Kd [14]: 0.4 nM; koff [14]: 0.0007 s⁻¹; kon [14]: 1.8e+06 M⁻¹ s⁻¹ |
|  |  |  |  |  |  |  |  |  |  |  |  | RON6 (antibody, V domains shown) VH: QVQLVQSGPEVKKSGSSVKVSCKASGGTFSSDAITWVRQAPGQGLEWMGGIIPILGMANYAQKFQGRVTITADKSTNTAYMELSSLRSEDTAVYFCARVADYYGLGTYYWYFDLWGRGTLVTVSS VL: not shown | kon [15]: 1.9e+08 M⁻¹ s⁻¹; Kd [16]: 1.1 nM; koff [16]: 0.0026 s⁻¹; kon [16]: 2.3e+06 M⁻¹ s⁻¹; Kd [17]: 1 nM; koff [17]: 0.19 s⁻¹ |
